Measured values taken from paper PMC4186968, “Molecular Basis for Coordinating Transcription Termination with Noncoding RNA Degradation” (Molecular Cell, 2014).
Where no end group is shown, it is not given here.

B2: Nrd1p CID (residues 1-153) (domain or fragment)
chain: MQQDDDFQNFVATLESFKDLKSGISGSRIKKLTTYALDHIDIESKIISLIIDYSRLCPDSHKLGSLYIIDSIGRAYLDETRSNSNSSSNKPGTCAHAINTLGEVIQELLSDAIAKSNQDHKEKIRMLLDIWDRSGLFQKSYLNAIRSKCFAMD

Key:
[1] = biological target: Nrd1p CID (residues 1-153) (UniProt P53617); experiment: fluorescence anisotropy (FA) equilibrium binding
[2] = system: Nrd1p-Nab3p; experiment: Electromobility shift assay of Nrd1p-Nab3p binding to RNA substrates; design: species or system S. cerevisiae; details: EMSA as for wt RNA; not accurately determined due to poor fit of the curve; estimated by graphical interpolation; read-out: Affinity of Nrd1p-Nab3p for RNA, estimated by graphical interpolation
Excerpt: Figure S6: Related to figure 6. A. Coomassie stained SDS-PAGE showing 10 pmol of each protein preparation used (50 pmol of the CID). Asterisks indicate proteolytic fragments of Air2p (deletions at the C-terminal unstructured region) and Nrd1-ΔCIDp (N-terminal truncation) that constitutes approximately 20% of the full-length protein. M: molecular weight marker. B. Analysis of Nrd1p-Nab3p binding to either the wt RNA, containing motifs required for high-affinity RNA-binding (open boxes), or a mutant variant harboring point mutations designed to disrupt all motifs (mutations underlined). The plots correspond to affinity curves generated by the Prism software from values derived from three independent electromobility shift assays (see supplemental experimental procedures). Bars denote standard deviations.
The affinity for the mutant RNA could not be accurately determined due to the poor fit of the curve but it was estimated to be approximately 45 nM by graphical interpolation. C. Polyadenylation assays using the wt and the mutant RNAs as substrates to test whether high-affinity RNA-binding by Nrd1p-Nab3p is required for stimulation of polyadenylation. Panels correspond to different gels.
(1 picture or pasted object on this page, not shown here) […]
for Nrd1 and Nab3) and stored at -80 °C. […]
average of three measurements. The experimental binding isotherms were analyzed by non- […]

[3] = biological target: T1, FAM-labeled Trf4p NIM peptide; experiment: fluorescence anisotropy (FA) equilibrium binding; details: chain shown with the change
T1 chain: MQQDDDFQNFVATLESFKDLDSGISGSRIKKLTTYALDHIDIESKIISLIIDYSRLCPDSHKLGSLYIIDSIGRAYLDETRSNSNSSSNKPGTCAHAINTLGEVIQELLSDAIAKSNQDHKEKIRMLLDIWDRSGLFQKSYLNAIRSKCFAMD

[4] = biological target: B2; experiment: FP
[5] = biological target: T2, Nrd1 (rNrd1);Nab3 (rNab3) (Saccharomyces cerevisiae;Saccharomyces …, UniProt P53617;P38996 1-575;1-802, |); experiment: EMSA; EMSA samples processed as described for the polyadenylation assays; buffer, salt, pH and temperature not in the material; n=3, single-site fit (Prism); details: protein: recombinant;recombinant; tags: ;C-terminal TEV-His6 (from pDL469 primers); copies: 1;1; single strand
T2 sequence 1: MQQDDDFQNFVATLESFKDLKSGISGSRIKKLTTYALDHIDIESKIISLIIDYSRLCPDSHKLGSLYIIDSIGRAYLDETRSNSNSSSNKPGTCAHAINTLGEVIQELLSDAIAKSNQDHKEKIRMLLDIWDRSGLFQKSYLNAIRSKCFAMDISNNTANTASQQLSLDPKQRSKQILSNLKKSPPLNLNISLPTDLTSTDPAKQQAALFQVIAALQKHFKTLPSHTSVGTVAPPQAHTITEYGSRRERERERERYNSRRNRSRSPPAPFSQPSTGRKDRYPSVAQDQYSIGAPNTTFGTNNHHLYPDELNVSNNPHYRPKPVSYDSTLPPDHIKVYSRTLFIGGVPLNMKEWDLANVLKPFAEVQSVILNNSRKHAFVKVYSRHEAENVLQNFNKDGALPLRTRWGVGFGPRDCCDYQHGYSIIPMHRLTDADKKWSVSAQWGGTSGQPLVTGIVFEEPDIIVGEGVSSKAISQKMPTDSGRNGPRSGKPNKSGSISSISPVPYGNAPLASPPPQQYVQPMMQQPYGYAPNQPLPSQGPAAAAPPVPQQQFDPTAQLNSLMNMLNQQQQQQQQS
T2 sequence 2: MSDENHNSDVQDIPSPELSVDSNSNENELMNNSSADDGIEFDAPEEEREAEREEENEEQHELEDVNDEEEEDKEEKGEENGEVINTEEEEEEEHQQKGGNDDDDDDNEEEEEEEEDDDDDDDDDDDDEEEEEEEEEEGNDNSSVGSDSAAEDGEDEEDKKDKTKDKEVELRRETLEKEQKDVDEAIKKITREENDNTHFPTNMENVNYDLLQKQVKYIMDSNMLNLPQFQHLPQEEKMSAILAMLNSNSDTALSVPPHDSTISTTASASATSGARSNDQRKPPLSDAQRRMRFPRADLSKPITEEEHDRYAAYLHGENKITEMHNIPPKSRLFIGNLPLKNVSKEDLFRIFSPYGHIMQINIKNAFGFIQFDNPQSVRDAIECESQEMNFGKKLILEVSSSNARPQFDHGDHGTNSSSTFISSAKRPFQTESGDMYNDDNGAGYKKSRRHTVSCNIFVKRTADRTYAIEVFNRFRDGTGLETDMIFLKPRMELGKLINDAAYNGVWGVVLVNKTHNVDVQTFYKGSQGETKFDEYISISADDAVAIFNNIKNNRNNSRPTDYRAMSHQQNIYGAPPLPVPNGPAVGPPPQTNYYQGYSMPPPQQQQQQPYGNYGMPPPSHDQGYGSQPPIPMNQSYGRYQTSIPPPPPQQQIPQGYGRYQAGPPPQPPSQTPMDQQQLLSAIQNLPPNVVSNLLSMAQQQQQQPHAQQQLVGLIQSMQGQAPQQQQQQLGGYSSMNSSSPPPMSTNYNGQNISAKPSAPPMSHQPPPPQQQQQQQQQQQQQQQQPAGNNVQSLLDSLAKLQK

[6] = biological target: T3, FAM-labeled Trf4p NIM peptide; experiment: fluorescence anisotropy (FA) equilibrium binding; details: chain shown with the change
T3 chain: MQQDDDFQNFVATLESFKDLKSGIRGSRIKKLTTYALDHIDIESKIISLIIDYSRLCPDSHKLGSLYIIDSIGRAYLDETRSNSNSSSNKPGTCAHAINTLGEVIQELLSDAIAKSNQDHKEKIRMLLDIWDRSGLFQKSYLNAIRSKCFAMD

[7] = biological target: T4, Nrd1p CID (residues 1-153) (S. cerevisiae, UniProt P53617 1-153); experiment: NMR solution structure; reconstituted complex of 15N,13C-labeled Nrd1p CID and unlabeled NIM peptide; 50 mM sodium phosphate pH 8.0, 100 mM NaCl, 20°C; details: both partners purified
T4 construct: also called Nrd1 CID
T4 sequence (looked up): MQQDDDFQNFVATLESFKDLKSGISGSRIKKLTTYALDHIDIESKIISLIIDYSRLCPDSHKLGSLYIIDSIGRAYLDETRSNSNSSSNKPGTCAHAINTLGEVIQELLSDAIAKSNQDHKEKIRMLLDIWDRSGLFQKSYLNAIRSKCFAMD

[8] = biological target: T2, Nrd1 (rNrd1);Nab3 (rNab3); experiment: EMSA; Kd value not in the material (legend line truncated); EMSA samples processed as described for the polyadenylation assays; buffer, salt, pH and temperature not in the material; n=3, single-site fit (Prism); details: protein: recombinant;recombinant; tags: ;C-terminal TEV-His6 (from pDL469 primers); copies: 1;1; single strand
[9] = biological target: T5, NIM D577R (Saccharomyces cerevisiae, not fully specified (N-terminus); also: FAM label (position not given here)); experiment: FP
T5 chain: DDDERGYNPYTL

[10] = biological target: T6, NIM N580A (Saccharomyces cerevisiae, not fully specified (N-terminus); also: FAM label (position not given here)); experiment: FP
T6 chain: DDDEDGYAPYTL

[11] = biological target: FAM-labeled Ser5P CTD peptide (S. cerevisiae); experiment: fluorescence polarisation; fluorescence anisotropy competition; preformed complex of 10 nM FAM-labeled Ser5P CTD and Nrd1p CID (120 μM) titrated with unlabeled Trf4p NIM peptide; KD calculated using 1.08 μM for CID-NIM
[12] = biological target: FAM-labeled Trf4p NIM peptide (S. cerevisiae); experiment: fluorescence polarisation; fluorescence anisotropy; fluorescently labeled peptide titrated with Nrd1p CID; equilibrium binding in solution
[13] = biological target: FAM-labeled Ser5P CTD peptide (S. cerevisiae); experiment: as above
[14] = system: Trf4p NIM peptide; experiment: Equilibrium binding of Nrd1p CID mutants to the NIM peptide by fluorescence anisotropy (FA); design: species or system S. cerevisiae; details: Nrd1p CID variant vs wild-type
Excerpt: Equilibrium binding experiments with both the protein and peptide mutants (in red and blue, respectively) were monitored by FA (for the binding isotherms, see Figure S5).
The importance of these contacts was further tested in a quantitative in vitro binding assay using FA.

FAM-labeled Trf4p NIM peptide Y579A
Kd [1]: 283 µM

mutant RNA: mutant RNA with point mutations disrupting all motifs: GAAACGCAAUGAAUUAAGACUCGAUACAUUGCAAUUAGCU (RNA, backbone not given here)
Kd [2]: ~0.045 µM

DDDEDGYNPYTL [Nrd1p CID (residues 1-153), P53617 K21D]
Kd [3]: 35.4 µM

DDDRDGYNPYTL [Trf4p NIM peptide with Glu576 changed to arginine]
Kd [4]: 4.6 µM

GAAACGUAAUGAAUUAAGUCUUGAUAUAUAACAAUUAGCU (ssRNA) [Wt RNA (DL2974)]
Kd [5]: 0.0024 ± 0.0003 µM

DDDEDGANPYTL (not fully specified (N-terminus); also: FAM label (position not given here)) [Trf4p NIM peptide with alanine at Tyr579]
Kd [4]: 263 µM

DDDEDGYNPYTL [Nrd1p CID (residues 1-153), P53617 S25R]
Kd [6]: 146 µM

B1: 12 aa NIM peptide of Trf4p (peptide)
peptide: DDDEDGYNPYTL
notes: printed in three-letter code; also called Trf4p NIM; unlabeled NIM
binding result [7]: binds

GAAACGCAAUGAAUUAAGACUCGAUACAUUGCAAUUAGCU (ssRNA) [Mutant RNA (DL2975)]
fold loss of affinity vs wt RNA [8]: ~20 fold lower affinity than wt RNA

B2
Kd [9]: 24.2 µM
Kd [10]: 4.3 µM
Kd [11]: 120 µM
Kd [12]: 1.08 µM
Kd [13]: 130 µM

B3: I130K (protein)
chain: MQQDDDFQNFVATLESFKDLKSGISGSRIKKLTTYALDHIDIESKIISLIIDYSRLCPDSHKLGSLYIIDSIGRAYLDETRSNSNSSSNKPGTCAHAINTLGEVIQELLSDAIAKSNQDHKEKIRMLLDKWDRSGLFQKSYLNAIRSKCFAMD
Decrease in binding affinity for NIM relative to wild-type CID (fold) [14]: 20 fold
